{
  "source": "ChEMBL document CHEMBL5252635",
  "about": "“The Mycobacterium tuberculosis mycothiol S-transferase is divalent metal-dependent for mycothiol binding and transfer” (2023)",
  "key": {"[1]": {"substrate": "CC(=O)N[C@@H](CS)C(=O)N[C@H]1[C@@H](O[C@@H]2[C@H](O)[C@H](O)[C@@H](O)[C@H](O)[C@H]2O)O[C@H](CO)[C@@H](O)[C@@H]1O", "settings": "Mycobacterium tuberculosis", "description": "Binding affinity to Mycobacterium tuberculosis MST assessed as Km by differential scanning fluorimetry method"}, "[2]": {"substrate": "CC(=O)N[C@@H](CS)C(=O)N[C@H]1[C@@H](O[C@@H]2[C@H](O)[C@H](O)[C@@H](O)[C@H](O)[C@H]2O)O[C@H](CO)[C@@H](O)[C@@H]1O", "settings": "Mycobacterium tuberculosis", "remark": "listed apart in the source", "description": "Binding affinity to Mycobacterium tuberculosis MST assessed as Km in presence of zinc"}},
  "data": [
    {"protein": "Conserved protein (Mycobacterium tuberculosis), O53728 (protein) MASTDAAAQELLRDAFTRLIEHVDELTDGLTDQLACYRPTPSANSIAWLLWHSARVQDIQVAHVAGVEEVWTRDGWVDRFGLDLPRHDTGYGHRPEDVAKVRAPADLLSGYYHAVHKLTLEYIAGMTADELSRVVDTSWNPPVTVSARLVSIVDDCAQHLGQAAYLRGIAR", "values": [
      {"measurement": "Km", "setting": "[1]", "value": 18.4, "unit": "µM"},
      {"measurement": "Km", "setting": "[2]", "value": 9.8, "unit": "µM"}
    ]}
  ]
}
